Measured values taken from paper PMC3168947 (Molecular cell, 2011).

How the values were obtained:
[1] = tested on: ClpAP; conditions: H66A mutation; in words; ref Wang et al., 2008a; cited from earlier work
[2] = tested on: ClpAP; experiment: ClpAPS degradation of YLFVQELA-GFP; format: biochemical, E. coli; conditions: YLFVQELA-GFP degradation; Vmax = Etotal•kdeg/(1+K2); KM = K1•K2/(1+K2); Fig. 4B
[3] = tested on: ClpAP; conditions: ref Dougan et al., 2002; cited from earlier work
[4] = tested on: ClpA; experiment: FeBABE cleavage of ClpA by FeBABE-modified ^Q12CClpS; design: species or system E. coli; conditions: SDS-PAGE; in words

B1: H66A: H66A mutation of ClpS (protein, UniProt P0A8Q6 1-106, looked up, variant H66A)
ATP-dependent Clp protease …: MGKTNDWLDFDQLAEEKVRDALKPPSMYKVILVNDDYTPMEFVIDVLQKFFSYDVERATQLMLAVAYQGKAICGVFTAEVAETKVAMVNKYARENEHPLLCTLEKA
[1]
  KM and Vmax for ClpAP degradation of N-end-rule substrates: increased KM and reduced Vmax

B2: ClpS: E. coli ClpS adaptor; folded core (residues 26-106) and N-terminal extension (residues 1-25) (protein, UniProt P0A8Q6 1-106, looked up)
ATP-dependent Clp protease …: MGKTNDWLDFDQLAEEKVRDALKPPSMYKVILVNDDYTPMEFVIDVLQKFFSYDVERATQLMLAVHYQGKAICGVFTAEVAETKVAMVNKYARENEHPLLCTLEKA
[2]
  K2 (unimolecular engagement step, global fit): 0.37
[3]
  degradation by ClpAP: does not degrade

B3: ^Q12CClpS: Q12C ClpS variant, FeBABE attached to residue 12 (protein, UniProt P0A8Q6 1-106, looked up, variant Q12C)
ATP-dependent Clp protease …: MGKTNDWLDFDCLAEEKVRDALKPPSMYKVILVNDDYTPMEFVIDVLQKFFSYDVERATQLMLAVHYQGKAICGVFTAEVAETKVAMVNKYARENEHPLLCTLEKA
modifications: FeBABE attached at Cys12
[4]
  FeBABE cleavage requirement: cleavage of ClpA required FeBABE-modified ^Q12CClpS and ATPγS
